Reference: patent US11939390B2, “Methods of treating multiple myeloma” (Sanofi-Aventis U.S. LLC, priority 2019, dated 2024)

Key:
[1] = Population pharmacokinetics of isatuximab; assay type: in vivo, human; conditions: patients with renal impairment vs those without
Excerpt: Blood samples were collected from all patients treated with […] to assess the pharmacokinetic profile of isatuximab using population pharmacokinetic approach.

[2] = tested on: anti-isatuximab antibodies; experiment: Immunogenicity: antidrug antibodies (ADA); parameters: species or system human; conditions: in vivo
Description: The presence of antidrug antibodies (ADA, i.e., anti-isatuximab antibodies) in patients in the IPd arm were assessed throughout the study.

isatuximab: anti-CD38 antibody, CAS Registry Number 1461640-62-9; heavy chain SEQ ID NO: 10, light chain SEQ ID NO: 11
Pharmacokinetic parameters [1]: comparable between patients with renal impairment and those without
anti-drug antibodies (ADA) [2]: No positive ADA
